From patent publication US20230303690A1 (published 2023)

B1: sdAb No. 2093 (VHH, part only)
VHH: QVQLVESGGGLVQPGGSLTLSCVASGFTLDYYTVGWFRQVPGKEREGISCISSSDGSTRYADSVKGRFTISRDNAKNTMSLQMNSLKPEDTAVYYCATPGIHGTSCNTSWKYYGQGTQVTVSS
modifications: possible Fc not stated
B2: sdAb No. 2018 (VHH, part only)
VHH: QVQLVESGGGLVQPGGSLKLSCTASGFTLDYYAIAWFRQAPGKEREAVSCISSSDGSTRYADSVKGRFTISRDNAKNTVYLQMNSLKPEDTAVYYCAADPYGDCRGPYDYWGQGTQVTVSS
modifications: possible Fc not stated
B3: sdAb No. 2015 (VHH, part only)
VHH: QLQLVESGGGLAQTGGSLRLSCAAAGFTFDDTATGWFRQAPGKNREGVACISSSDGRIHYIDSAKGRFTISKDNAKKTVYLQMDSLKPEDTAVYYCAAARKGSTDCQGAIWGSWGQGTQVIVSS
modifications: possible Fc not stated
B4: sdAb fusion 25-27-2 (Fc fusion, not shown: a dimerising Fc or GST)
chain: QLQLVESGGGLVQAGGSLRLSCAASGSIESFSFMGWYRQAPGKQRELVAGFTGAASLSFSTYTDAVKGRFTISRDNAKNTVYLQMNSLKPEDTAVYFCNVDPWSQSWPGRYWGQGTQVTVSSGGGGSGGGGSQVQLVESGGGLVQPGGSLRLSCAASGFTLDYYAIGWFRQAPGKEREGVSCIRSSDGSTYYADSVKGRFTISSDNTKNTVYLQMNSLKPEDTAVYYCATDRYSDCRGPYENWGQGTQVTVSSEPKSCDKTHTCPPCPAPELLG
B5: sdAb fusion 25-2015-1 (Fc fusion, not shown: a dimerising Fc or GST)
chain: QLQLVESGGGLVQAGGSLRLSCAASGSIESFSFMGWYRQAPGKQRELVAGFTGAASLSFSTYTDAVKGRFTISRDNAKNTVYLQMNSLKPEDTAVYFCNVDPWSQSWPGRYWGQGTQVTVSSGGGGSQLQLVESGGGLAQTGGSLRLSCAAAGFTFDDTATGWFRQAPGKNREGVACISSSDGRIHYIDSAKGRFTISKDNAKKTVYLQMDSLKPEDTAVYYCAAARKGSTDCQGAIWGSWGQGTQVIVSSEPKSCDKTHTCPPCPAPELLG
B6: sdAb fusion 25-17-2 (Fc fusion, not shown: a dimerising Fc or GST)
chain: QLQLVESGGGLVQAGGSLRLSCAASGSIESFSFMGWYRQAPGKQRELVAGFTGAASLSFSTYTDAVKGRFTISRDNAKNTVYLQMNSLKPEDTAVYFCNVDPWSQSWPGRYWGQGTQVTVSSGGGGSGGGGSQLQLVESGGGLVQPGGSLRLSCAASGLTLDGYAIGWFRQAPGKEREGLACISGSDGSTHYLDSVKGRFTISRDNGKNTMALQMNSLQFGDTAIYYCAARRGSCSGSWTYWGQGTQVTVSSEPKSCDKTHTCPPCPAPELLG
B7: sdAb fusion 25-17-1 (Fc fusion, not shown: a dimerising Fc or GST)
chain: QLQLVESGGGLVQAGGSLRLSCAASGSIESFSFMGWYRQAPGKQRELVAGFTGAASLSFSTYTDAVKGRFTISRDNAKNTVYLQMNSLKPEDTAVYFCNVDPWSQSWPGRYWGQGTQVTVSSGGGGSQLQLVESGGGLVQPGGSLRLSCAASGLTLDGYAIGWFRQAPGKEREGLACISGSDGSTHYLDSVKGRFTISRDNGKNTMALQMNSLQFGDTAIYYCAARRGSCSGSWTYWGQGTQVTVSS
B8: sdAb fusion 25-17-3 (Fc fusion, not shown: a dimerising Fc or GST)
chain: QLQLVESGGGLVQAGGSLRLSCAASGSIESFSFMGWYRQAPGKQRELVAGFTGAASLSFSTYTDAVKGRFTISRDNAKNTVYLQMNSLKPEDTAVYFCNVDPWSQSWPGRYWGQGTQVTVSSGGGGSGGGGSGGGGSQLQLVESGGGLVQPGGSLRLSCAASGLTLDGYAIGWFRQAPGKEREGLACISGSDGSTHYLDSVKGRFTISRDNGKNTMALQMNSLQFGDTAIYYCAARRGSCSGSWTYWGQGTQVTVSSEPKSCDKTHTCPPCPAPELLG
B9: sdAb fusion 25-2015-3 (Fc fusion, not shown: a dimerising Fc or GST)
chain: QLQLVESGGGLVQAGGSLRLSCAASGSIESFSFMGWYRQAPGKQRELVAGFTGAASLSFSTYTDAVKGRFTISRDNAKNTVYLQMNSLKPEDTAVYFCNVDPWSQSWPGRYWGQGTQVTVSSGGGGSGGGGSGGGGSQLQLVESGGGLAQTGGSLRLSCAAAGFTFDDTATGWFRQAPGKNREGVACISSSDGRIHYIDSAKGRFTISKDNAKKTVYLQMDSLKPEDTAVYYCAAARKGSTDCQGAIWGSWGQGTQVIVSSEPKSCDKTHTCPPCPAPELLG
B10: sdAb fusion 25-2015-2 (Fc fusion, not shown: a dimerising Fc or GST)
chain: QLQLVESGGGLVQAGGSLRLSCAASGSIESFSFMGWYRQAPGKQRELVAGFTGAASLSFSTYTDAVKGRFTISRDNAKNTVYLQMNSLKPEDTAVYFCNVDPWSQSWPGRYWGQGTQVTVSSGGGGSGGGGSQLQLVESGGGLAQTGGSLRLSCAAAGFTFDDTATGWFRQAPGKNREGVACISSSDGRIHYIDSAKGRFTISKDNAKKTVYLQMDSLKPEDTAVYYCAAARKGSTDCQGAIWGSWGQGTQVIVSSEPKSCDKTHTCPPCPAPELLG
B11: sdAb fusion 25-27-3 (Fc fusion, not shown: a dimerising Fc or GST)
chain: QLQLVESGGGLVQAGGSLRLSCAASGSIESFSFMGWYRQAPGKQRELVAGFTGAASLSFSTYTDAVKGRFTISRDNAKNTVYLQMNSLKPEDTAVYFCNVDPWSQSWPGRYWGQGTQVTVSSGGGGSGGGGSGGGGSQVQLVESGGGLVQPGGSLRLSCAASGFTLDYYAIGWFRQAPGKEREGVSCIRSSDGSTYYADSVKGRFTISSDNTKNTVYLQMNSLKPEDTAVYYCATDRYSDCRGPYENWGQGTQVTVSSEPKSCDKTHTCPPCPAPELLG

Target: human LAG3 expressed on cells (human) (UniProt P18627)
Experiment: cell-based or functional assay

Sequence of human LAG3 expressed on cells (human) (P18627 23-525): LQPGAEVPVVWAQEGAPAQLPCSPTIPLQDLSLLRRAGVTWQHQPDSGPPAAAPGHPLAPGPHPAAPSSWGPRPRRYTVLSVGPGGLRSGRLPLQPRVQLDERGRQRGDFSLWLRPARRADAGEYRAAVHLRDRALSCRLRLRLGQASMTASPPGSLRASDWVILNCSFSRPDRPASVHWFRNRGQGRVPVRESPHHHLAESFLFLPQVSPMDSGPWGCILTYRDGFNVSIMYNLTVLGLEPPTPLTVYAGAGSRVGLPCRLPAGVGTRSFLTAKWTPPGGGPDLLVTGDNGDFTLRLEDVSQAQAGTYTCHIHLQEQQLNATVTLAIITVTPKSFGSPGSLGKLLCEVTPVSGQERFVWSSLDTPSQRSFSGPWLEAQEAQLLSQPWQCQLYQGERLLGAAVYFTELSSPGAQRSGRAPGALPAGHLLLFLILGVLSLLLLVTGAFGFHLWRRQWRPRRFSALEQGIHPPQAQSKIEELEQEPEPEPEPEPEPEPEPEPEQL

| Binder | Efficacy (Normalized to BMS) [%] | IL-2, % of BMS, at 0.001016105 ug/mL [%] | IL-2, % of BMS, at 0.003048316 ug/mL [%] | IL-2, % of BMS, at 0.009144947 ug/mL [%] | IL-2, % of BMS, at 0.027434842 ug/mL [%] | IL-2, % of BMS, at 0.082304527 ug/mL [%] | IL-2, % of BMS, at 0.24691358 ug/mL [%] | IL-2, % of BMS, at 0.740740741 ug/mL [%] | IL-2, % of BMS, at 2.222222222 ug/mL [%] | IL-2, % of BMS, at 6.666666667 ug/mL [%] | IL-2, % of BMS, at 20 ug/mL [%] | Jurkat T-hLAG3 Assay EC50 [nM] | other results |
| --- | --- | --- | --- | --- | --- | --- | --- | --- | --- | --- | --- | --- | --- |
| B1 | – | – | – | – | – | – | – | – | – | – | – | – | IL-2, % of BMS, at 0.005080526 ug/mL: -0.00098%; IL-2, % of BMS, at 0.015241579 ug/mL: -3.19%; IL-2, % of BMS, at 0.045724737 ug/mL: 5.73%; IL-2, % of BMS, at 0.137174211 ug/mL: 0.267%; IL-2, % of BMS, at 0.411522634 ug/mL: 1.04%; IL-2, % of BMS, at 1.234567901 ug/mL: 4%; IL-2, % of BMS, at 3.703703704 ug/mL: 14.9%; IL-2, % of BMS, at 11.11111111 ug/mL: 20%; IL-2, % of BMS, at 33.33333333 ug/mL: 14.4%; IL-2, % of BMS, at 100 ug/mL: 22.2% |
| B2 | – | – | – | – | – | – | – | – | – | – | – | – | IL-2, % of BMS, at 0.005080526 ug/mL: 0.0212%; IL-2, % of BMS, at 0.015241579 ug/mL: 5.32%; IL-2, % of BMS, at 0.045724737 ug/mL: 2.83%; IL-2, % of BMS, at 0.137174211 ug/mL: 9.41%; IL-2, % of BMS, at 0.411522634 ug/mL: 15.3%; IL-2, % of BMS, at 1.234567901 ug/mL: 22.8%; IL-2, % of BMS, at 3.703703704 ug/mL: 28.6%; IL-2, % of BMS, at 11.11111111 ug/mL: 34.6%; IL-2, % of BMS, at 33.33333333 ug/mL: 36.9%; IL-2, % of BMS, at 100 ug/mL: 37% |
| B3 | – | – | – | – | – | – | – | – | – | – | – | – | IL-2, % of BMS, at 0.005080526 ug/mL: 0.0179%; IL-2, % of BMS, at 0.015241579 ug/mL: 1.06%; IL-2, % of BMS, at 0.045724737 ug/mL: 0.925%; IL-2, % of BMS, at 0.137174211 ug/mL: 1.92%; IL-2, % of BMS, at 0.411522634 ug/mL: 1.8%; IL-2, % of BMS, at 1.234567901 ug/mL: 10.6%; IL-2, % of BMS, at 3.703703704 ug/mL: 19.1%; IL-2, % of BMS, at 11.11111111 ug/mL: 33.6%; IL-2, % of BMS, at 33.33333333 ug/mL: 39.8%; IL-2, % of BMS, at 100 ug/mL: 46.6% |
| B4 | 106 | 0.0147 | 3.76 | 5.39 | 11.1 | 6.04 | 17.2 | 62 | 114 | 123 | 124 | – | – |
| B5 | 114 | 0.000292 | 10.8 | 7.32 | 30.4 | 10.4 | 35.6 | 59.7 | 97.5 | 112 | 117 | 8.01 | – |
| B6 | 102 | -0.00048 | -2.52 | -0.621 | 12 | -7.68 | -2.21 | 16.4 | 77.7 | 85.1 | 111 | 14 | – |
| B7 | 106 | 0.0133 | 4.1 | -0.836 | -2.73 | -5.85 | 6.88 | 34 | 82.7 | 89.2 | 110 | 10.9 | – |
| B8 | 102 | 0.000639 | 5.71 | 7.44 | 8.91 | 11.7 | 12.1 | 28.9 | 62.8 | 93.2 | 103 | 18.4 | – |
| B9 | 113 | 0 | 10.7 | 7.28 | 30.2 | 10.3 | 35.4 | 59.3 | 96.8 | 112 | 116 | 8.01 | – |
| B10 | 101 | 0.000334 | -15.6 | -12.5 | 20.8 | -0.802 | 20.9 | 59.4 | 83.2 | 88.3 | 96.6 | 5.13 | – |
| B11 | – | 0.0673 | -5.25 | 2.64 | -8.9 | -0.289 | 3.53 | 17 | 58.4 | 120 | 168 | – | – |
